Data taken from EP4293040A1.

Target: human trimeric IL-2 receptor (IL-2Rα, IL2Rβ and reconstituted transgenic wild-type GCR) on GnR cells (human) (UniProt P01589)
Assay: cell-based or functional assay

## IL-15 (from UniProt P40933 49-162) (ligand)
  EC50 of the mRuby2 response (STAT5-mRuby2 reporter): 0.56 nM
